System: human myometrial cells
Assay: Live cell confocal microscopy, delivery of rhodamine cargo
Settings: live cell spinning disk confocal microscopy; primary human myometrial cells; 1, 3 and 10 μM; 60 min; 37°C, 5% CO2; serum-reduced media (0.1% FCS); 3 independent experiments
Protocol: Cells were washed in phosphate buffered saline and changed to serum-reduced media (0.1%FCS) for 18–24 h ([39]).
Initial images were collected to assess baseline cellular auto-fluorescence prior to the addition of varying concentrations of fluorophore-CPP/fluorophore- CPP-Cargo/fluorophore-control peptide combinations (see Table 1) that were ready made up in serum-reduced cell media. Further images were captured 60 min following application.
To make a thorough assessment of fluorescent uptake throughout whole cells, all images were captured as a series of slices in the Z plane (range 3–10 slices per area selected, each slice 0.54 μm apart) with the 40x objective using live cell spinning disk confocal microscopy (Andor Revolution XD coupled to an Olympus IX-81 inverted microscope; Andor Belfast UK). All images were digitally recorded with IQ2 software (Andor, Belfast, UK).

Substance	delivery of rhodamine fluorophore internal to the cells
Rhodamine-RQIKIWFQNRRMKW-Aca- TALDWSWLQTE [rhodamine Pen(43-56)–NBD]	demonstrated ability to enter myometrial cells
Rhodamine–RQIKIWFQNRRMKWKK [Penetratin, conjugated to rhodamine]	able to enter uterine cells

From publication PMC6307458, “Inhibition of Inflammatory Changes in Human Myometrial Cells by Cell Penetrating Peptide and Small Molecule Inhibitors of NFκB” (Frontiers in Immunology, 2018)
